One block for each binder: values may come before it.
Assays:
[1] = target: T1, human c-fms, full length, on cells (human, UniProt P07333 20-972); experiment: cell-based or functional assay
[2] = target: T2, cynomolgus monkey c-fms on primary bone marrow cells (cynomolgus monkey); experiment: cell-based or functional assay
[3] = target: T2, cynomolgus monkey c-fms on primary bone …; experiment: cell-based or functional assay; remark: listed apart in the source
[4] = target: T3, monomeric human c-fms (residues 1-512)-pHis (human, UniProt P07333 20-512); experiment: Biacore (summary table)
T3 construct: Construct stated as residues 1-512; signal stated as amino acids 1-19 and left out; also called human c-fms (1-512).pHIS; monomeric c-fms
Protocol: (§1) Anti-c-fms 1.2 or 1.2 SM at 0.25 μg/ml was injected over goat anti-human IgG, Fcγ in one flow cell for 2 minutes at 10 μl/min to obtain a surface density of ˜47 RUs. Another flow cell with goat anti-human IgG, Fcγ alone was used as a reference surface. Each assay started with ten cycles of buffer as the analyte to stabilize the signal. […] Each complex was allowed to associate for 2 minutes, and dissociate for 5 minutes. The surfaces were regenerated after each c-fms or buffer injection with a 30-second pulse of 10 mM glycine HCl, pH 1.5 at 100 μl/min, followed by a 30-second injection of buffer.
(§2) Other anti-c-fms antibodies were tested in a similar manner, but changes were made to the protocol to account for differences in binding characteristics.
(§3) Data was double referenced by subtracting the reference surface responses to remove bulk refractive index changes, and then subtracting the averaged buffer blank response to remove systematic artifacts from the experimental flow cells.

[5] = target: T3, monomeric human c-fms (residues …); experiment: Biacore, monomeric c-fms
Protocol: (§4) The binding affinities of the somatic mutation corrected antibodies to monomeric c-fms protein were measured by surface plasmon resonance using a Biacore 3000 instrument.
(§5) The affinity of human c-fms (1-512). pHIS (Amgen) for the anti-c-fms mAbs was measured by Biacore. Experiments were conducted at 25° C. using a Biacore 3000 instrument (Biacore AB) equipped with a CM4 sensor chip. Sensor chips, amine coupling reagents (EDC (1-ethyl-3(3-dimethylaminopropyl)-carbodiimide hydrochloride), NHS (N-hydroxysuccinimide), and ethanolamine-HCl, pH 8.5), 10 mM sodium acetate, pH 5.5, HBS-EP (0.01 M HEPES pH 7.4, 0.15 M NaCl, 3 mM EDTA, 0.005% v/v Surfactant P20), and 10 mM glycine-HCl, pH 1.5 were purchased from Biacore AB. Bovine serum albumin (BSA, Bovuminar Standard Powder) was purchased from Serological Corporation. AffiniPure Goat Anti-Human IgG, Fcγ Fragment Specific was purchased from Jackson ImmunoResearch Laboratories.
as §2

[6] = target: T3, monomeric human c-fms (residues …); experiment: SPR, Biacore 3000, monomeric c-fms; reference: parent 1.109
Protocol: as §4, §5, §2

[7] = target: T1, human c-fms, full length, on cells; experiment: inhibition of 125I-hCSF-1 binding to AML-5 cells, 4 C; competitor: 125I-hCSF-1
Protocol: (§6) A saturation radioligand binding experiment was performed in conjunction with each inhibition assay in order to determine both a KD and […] for hCSF-1 binding to c-fms expressed on the surface of AML-5 cells. Mixtures were set up in 96-well round-bottom microtiter plates with total volumes of 150 μl/well. All reagents were diluted in binding media containing 0.2% sodium azide and experiments were conducted at 4° C. to minimize potential receptor internalization and shedding.
(§7) For the saturation binding assay, ¹²⁵I-hCSF-1 was serially diluted 2-fold, starting at a concentration of ˜1.7 nM and going out 12 wells to a concentration of ˜1.5 pM. Nonspecific binding was measured at a single concentration of ¹²⁵I-hCSF-1 (˜80 pM, in triplicate) in the presence of a 1,000-fold molar excess of unlabeled hCSF-1, and assumed to be a linear function of the concentration of radiolabeled hCSF-1 present.

[8] = target: T1, human c-fms, full length, on cells; experiment: inhibition of 125I-CSF-1 binding to AML-5 cells; competitor: 125I-CSF-1 (summary table)
Protocol: as §6
(§8) Both assays were incubated at 4° C. on a miniorbital shaker for 4 hours, the length of time needed to reach equilibrium as determined in time course experiments. Two 60 μl aliquots of each incubation mixture were transferred to chilled 400 μl polyethylene centrifuge tubes containing 200 μl phthalate oil and spun for 1.5 minutes in a 4° C. tabletop microfuge (Sorvall,) at 9615×g to separate cell associated ¹²⁵I-hCSF-1 from free ¹²⁵I-hCSF-1. The oil tubes were cut, and each cell pellet and supernatant collected in individual 12×75 mm glass tubes and loaded on a COBRA gamma counter (Packard Instrument Company) for cpm measurements. Cpm from duplicate aliquots taken from each well were averaged for analysis.
(§9) Mean K₁ values from 2 experiments were reported (see, TABLE 13).

[9] = target: T3, monomeric human c-fms (residues …); experiment: Biacore 3000, 25 C; mAb captured on goat anti-human IgG Fc, monomeric c-fms(1-512)-pHis analyte, 1:1 fit
Protocol: as §1, §2, §3

[10] = target: T1, human c-fms, full length, on cells; experiment: cell-based or functional assay; remark: listed apart in the source
[11] = target: T1, human c-fms, full length, on cells; experiment: cell-based or functional assay; remark: listed apart in the source
[12] = target: T2, cynomolgus monkey c-fms on primary bone …; experiment: cell-based or functional assay; remark: listed apart in the source
[13] = target: T1, human c-fms, full length, on cells; experiment: cell-based or functional assay; remark: listed apart in the source
[14] = target: T1, human c-fms, full length, on cells; experiment: saturation radioligand binding on AML-5 cells, 4 C; 125I-labelled hCSF-1, saturation binding, 4 C
Protocol: as §7, §8, §9

[15] = target: T1, human c-fms, full length, on cells; experiment: inhibition of 125I-hCSF-1 binding to AML-5 cells, 4 C; unlabeled hCSF-1, competitive inhibition of 125I-hCSF-1, 4 C
Protocol: as §6, §8, §9

[16] = target: T3, monomeric human c-fms (residues …); experiment: SPR, Biacore 3000, monomeric c-fms; reference: parent 2.360
Protocol: as §4, §5, §2

T3 sequence (P07333 20-512): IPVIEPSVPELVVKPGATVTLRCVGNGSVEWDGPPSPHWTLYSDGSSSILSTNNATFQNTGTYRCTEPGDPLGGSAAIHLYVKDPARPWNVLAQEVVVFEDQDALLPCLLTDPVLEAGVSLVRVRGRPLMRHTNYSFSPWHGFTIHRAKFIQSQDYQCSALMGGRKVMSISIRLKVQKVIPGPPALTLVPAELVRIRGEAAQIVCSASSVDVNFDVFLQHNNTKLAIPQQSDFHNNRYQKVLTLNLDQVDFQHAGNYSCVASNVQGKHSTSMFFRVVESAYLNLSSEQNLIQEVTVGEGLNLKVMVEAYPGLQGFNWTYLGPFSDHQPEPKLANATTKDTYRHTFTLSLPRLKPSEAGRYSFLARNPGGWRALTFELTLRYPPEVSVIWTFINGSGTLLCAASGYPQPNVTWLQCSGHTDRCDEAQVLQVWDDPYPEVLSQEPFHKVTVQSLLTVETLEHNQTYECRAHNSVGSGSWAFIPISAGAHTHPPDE
T1 sequence (P07333 20-972): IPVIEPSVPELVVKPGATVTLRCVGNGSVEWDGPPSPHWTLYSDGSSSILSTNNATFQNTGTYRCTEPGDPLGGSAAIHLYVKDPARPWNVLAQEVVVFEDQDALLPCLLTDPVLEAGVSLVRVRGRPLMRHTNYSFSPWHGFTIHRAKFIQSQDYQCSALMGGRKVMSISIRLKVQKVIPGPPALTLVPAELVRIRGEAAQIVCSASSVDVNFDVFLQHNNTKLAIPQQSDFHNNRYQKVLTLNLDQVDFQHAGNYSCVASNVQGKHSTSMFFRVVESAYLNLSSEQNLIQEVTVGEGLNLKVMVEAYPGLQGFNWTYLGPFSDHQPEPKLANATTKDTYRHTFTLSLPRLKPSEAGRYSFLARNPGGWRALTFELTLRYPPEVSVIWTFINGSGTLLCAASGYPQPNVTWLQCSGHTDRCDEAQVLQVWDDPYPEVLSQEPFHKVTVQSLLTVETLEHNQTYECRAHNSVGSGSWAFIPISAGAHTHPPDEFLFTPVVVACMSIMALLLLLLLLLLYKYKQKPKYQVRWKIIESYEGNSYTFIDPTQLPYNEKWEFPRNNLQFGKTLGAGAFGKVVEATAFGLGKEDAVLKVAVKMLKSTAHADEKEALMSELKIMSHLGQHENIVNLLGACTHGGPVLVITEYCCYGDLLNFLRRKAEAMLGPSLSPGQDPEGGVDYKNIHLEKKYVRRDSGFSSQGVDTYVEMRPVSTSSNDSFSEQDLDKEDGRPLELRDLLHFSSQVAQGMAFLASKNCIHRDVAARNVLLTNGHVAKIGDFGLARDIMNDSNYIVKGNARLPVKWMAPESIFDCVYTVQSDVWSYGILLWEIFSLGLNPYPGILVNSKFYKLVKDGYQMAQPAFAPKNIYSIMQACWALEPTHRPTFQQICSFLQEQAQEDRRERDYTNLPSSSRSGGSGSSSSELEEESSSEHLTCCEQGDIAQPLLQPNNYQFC

antibody concentration that prevented CSF-1-induced pTyr/c-fms, 293T/c-fms cells [1]: ≥ 0.1 µg/ml
Cynomolgus bone marrow bioassay IC50 [2]: 0.023 nM
Cynomolgus Bone Marrow Proliferation IC50 [3]: 0.023 nM
Kd [4]: 0.102 nM
Kd [5]: 0.102 nM
fold loss of affinity against the parent antibody [6]: 2 fold
Ki [7]: 0.0097 nM
Ki [8]: 0.0097 nM
Kd [9]: 0.102 nM
koff [9]: 0.000271 s⁻¹
kon [9]: 2.66e+06 M⁻¹ s⁻¹
B1: anti-c-fms IgG2 clone 1.109 SM (somatic mutation cured) (antibody, V domains shown)
VH: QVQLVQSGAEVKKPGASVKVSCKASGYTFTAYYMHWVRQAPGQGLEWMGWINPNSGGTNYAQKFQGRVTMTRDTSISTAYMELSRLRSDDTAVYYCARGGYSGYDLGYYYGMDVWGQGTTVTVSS
VL: DIQMTQSPSSLSASVGDRVTITCQASQDISNFLDWYQQKPGKAPKLLIYDASDLDPGVPSRFSGSGSGTDFTFTISSLQPEDIATYYCQQYVSLPLTFGGGTKVEIKR
notes: Recombinant IgG2 kappa; light chain Asn-28 to Asp and Asn-45 to Lys

antibody concentration that prevented CSF-1-induced pTyr/c-fms, 293T/c-fms cells [1]: ≥ 0.1 µg/ml
AML-5 bioassay IC50 [10]: 0.012 nM
Cynomolgus bone marrow bioassay IC50 [2]: 0.081 nM
IC50 of 1.2 SM in the presence of hCSF-1, human bone marrow monocytic cell proliferation, Average [11]: 0.0155 nM
IC50 of 1.2 SM in the presence of hCSF-1, human bone marrow monocytic cell proliferation, Expt. 1 [11]: 0.0155 nM
IC50 of 1.2 SM in the presence of hCSF-1, human bone marrow monocytic cell proliferation, Expt. 2 [11]: 0.0201 nM
IC50 of 1.2 SM in the presence of hCSF-1, human bone marrow monocytic cell proliferation, Expt. 3 [11]: 0.0109 nM
IC50 of 1.2 SM in the presence of hCSF-1, cynomolgus bone marrow monocytic cell proliferation, Average [12]: 0.0327 nM
IC50 of 1.2 SM in the presence of hCSF-1, cynomolgus bone marrow monocytic cell proliferation, Expt. 1 [12]: 0.0425 nM
IC50 of 1.2 SM in the presence of hCSF-1, cynomolgus bone marrow monocytic cell proliferation, Expt. 2 [12]: 0.026 nM
IC50 of 1.2 SM in the presence of hCSF-1, cynomolgus bone marrow monocytic cell proliferation, Expt. 3 [12]: 0.0229 nM
AML-5 proliferation IC50 [13]: 0.012 nM
Cynomolgus Bone Marrow Proliferation IC50 [3]: 0.081 nM
Kd [4]: 0.548 nM
Kd [5]: 0.548 nM
Ki [7]: 0.0115 nM
Ki [8]: 0.0115 nM
Kd [9]: 0.548 nM
koff [9]: 0.00199 s⁻¹
kon [9]: 3.62e+06 M⁻¹ s⁻¹
B2: anti-c-fms IgG2 clone 1.2 SM (somatic mutation cured) (antibody, V domains shown)
VH: QVQLVQSGAEVKKPGASVKVSCKASGYTFTSYGISWVRQAPGQGLEWMGWISAYNGNTNYAQKLQGRVTMTTDTSTSTAYMELRSLRSDDTAVYYCARESWFGEVFFDYWGQGTLVTVSS
VL: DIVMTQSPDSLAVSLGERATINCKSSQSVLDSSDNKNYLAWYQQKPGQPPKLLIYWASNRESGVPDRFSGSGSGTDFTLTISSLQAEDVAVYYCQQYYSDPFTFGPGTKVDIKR
notes: Recombinant IgG2 kappa; light chain Ser-78 reverted to germline Thr; also called 1.2.1 SM; antibody 1.2 SM

Kd [14]: 0.046 nM
Ki [15]: 0.0178 nM
B3: recombinant human CSF-1 (ligand, UniProt P09603 33-190, looked up)
chain: EEVSEYCSHMIGSGHLQSLQRLIDSQMETSCQITFEFVDQEQLKDPVCYLKKAFLLVQDIMEDTMRFRDNTPNAIAIVQLQELSLRLKSCFTKDYEEHDKACVRTFYETPLQLLEKVKNVFNETKNLLDKDWNIFSKNCNNSFAECSSQDVVTKPDCN
notes: also called hCSF-1

AML-5 proliferation assay, loss in potency relative to the parent IgG2 antibody [1]: 10 fold
Kd [4]: 1.2 nM
Kd [5]: 1.2 nM
fold loss of affinity against the parent antibody [16]: 2 fold
Ki [7]: ~0.9 nM
Ki [8]: ~0.9 nM
Kd [9]: 1.2 nM
koff [9]: 0.000955 s⁻¹
kon [9]: 794000 M⁻¹ s⁻¹
B4: anti-c-fms IgG2 clone 2.360 SM (somatic mutation cured) (antibody, V domains shown)
VH: QVQLVQSGAEVKKPGASVKVSCKVSGYTLTELSMHWVRQAPGKGLEWMGGFDPEDGETIYAQKFQGRVTMTEDTSTDTAYMELSSLRSEDTAVYYCATGVMITFGGVIVGHSYYGMDVWGQGTTVTVSS
VL: DIQMTQSPSSLSASVGDRVTITCRASQGINNYLAWYQQKPGKVPKLLIYVASTLQSGVPSRFSGSGSGTDFTLTISSLQPEDVATYYCQKYNSGPFTFGPGTKVDIKR
notes: Recombinant IgG2 kappa; heavy chain Val-79 to Ala, light chain Gln-45 to Lys

— patent US20090155164A1 (Amgen, published 2009)
